# According to PMC4176350, “A high security double lock and key mechanism in HUH relaxases controls oriT-processing for plasmid conjugation”:
# T1: TrwCR (TrwC relaxase domain, TrwC-N293) (Escherichia coli? (plasmid R388), UniProt Q47673 1-293)
# T1 sequence: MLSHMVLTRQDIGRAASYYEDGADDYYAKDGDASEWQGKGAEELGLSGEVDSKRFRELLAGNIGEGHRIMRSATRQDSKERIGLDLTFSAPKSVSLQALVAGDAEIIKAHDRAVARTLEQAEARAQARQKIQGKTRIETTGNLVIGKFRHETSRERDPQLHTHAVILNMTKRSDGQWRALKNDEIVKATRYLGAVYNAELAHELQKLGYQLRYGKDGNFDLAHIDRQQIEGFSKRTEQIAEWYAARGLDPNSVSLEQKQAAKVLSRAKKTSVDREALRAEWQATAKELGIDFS
# Target: T1, TrwCR (TrwC relaxase domain, TrwC-N293)
# Assay: X-ray crystallography; 1:1.5 protein:DNA; Crystallization: TrwCR 6 mg/ml in 200 mM NaCl, 20 mM Tris-HCl pH 7.5, 1 mM DTT, 0.5 mM EDTA; reservoir 2 M ammonium phosphate, 0.1 M Tris-HCl pH 8.5, 22 C
# Settings: protein: recombinant; hairpin with 3' single-stranded tail
binder,measurement,value
"GCACCGAAAGGTGCGTATTCTTGGT (structured_DNA) [RIV(23+2), nic mutant IV]",binding result,binds
